From US20030104423
Substitutions are numbered along the chain they refer to. Numbers in names are those of the source.

B1: β′ mutant R297L (protein)
chain: MKDLLKFLKAQTKTEEFDAIKIALASPDMIRSWSFGEVKKPETINYRTFKPERDGLFCARIFGPVKDYECLCGKYKRLKHRGVICEKCGVEVTQTKVRRERMGHIELASPTAHIWFLKSLPSRIGLLLDMPLRDIERVLYFESYVVIEGGMTNLERQQILTEEQYLDALEEFGDEFDAKMGAEAIQALLKSMDLEQECEQLREELNETNSETKRKKLTKRIKLLEAFVQSGNKPEWMILTVLPVLPPDLRPLVPLDGGRFATSDLNDLYRRVINRNNRLKRLLDLAAPDIIVRNEKLMLQEAVDALLDNGRRGRAITGS
B2: β′ mutant L299D (protein)
chain: B1 chain with L297R, L299D
B3: β′ mutant V272D (protein)
chain: B1 chain with V272D, L297R
B4: β′ mutant R270L (protein)
chain: B1 chain with R270L, L297R
B5: β′ mutant E301K (protein)
chain: B1 chain with L297R, E301K
B6: β′ mutant N274D (protein)
chain: B1 chain with N274D, L297R
B7: β′ mutant N274P (protein)
chain: B1 chain with N274P, L297R
B8: β′ mutant E301P (protein)
chain: B1 chain with L297R, E301P

target: σ70, native, untagged (pLN12), P00579
Sequence (P00579 whole entry): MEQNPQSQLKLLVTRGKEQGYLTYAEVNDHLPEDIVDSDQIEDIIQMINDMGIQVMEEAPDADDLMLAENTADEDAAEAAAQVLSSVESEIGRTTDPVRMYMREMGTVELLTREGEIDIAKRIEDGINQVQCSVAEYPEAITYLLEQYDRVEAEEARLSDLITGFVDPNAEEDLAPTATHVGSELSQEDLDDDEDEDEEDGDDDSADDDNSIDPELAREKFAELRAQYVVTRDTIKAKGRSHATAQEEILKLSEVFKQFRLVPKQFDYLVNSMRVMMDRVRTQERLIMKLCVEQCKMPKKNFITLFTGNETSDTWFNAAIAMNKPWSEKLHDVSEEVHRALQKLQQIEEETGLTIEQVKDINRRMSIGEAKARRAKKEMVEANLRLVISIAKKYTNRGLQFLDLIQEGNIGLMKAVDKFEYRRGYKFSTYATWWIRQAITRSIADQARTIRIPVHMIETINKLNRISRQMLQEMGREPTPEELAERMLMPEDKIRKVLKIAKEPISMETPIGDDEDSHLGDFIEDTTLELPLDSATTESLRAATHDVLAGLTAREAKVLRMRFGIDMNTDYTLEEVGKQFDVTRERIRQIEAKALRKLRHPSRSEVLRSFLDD

Protein | Growth at 42° C. with plasmid β′ as sole source of β′ (strain RL602)
B1 | -
B2 | -
B3 | -
B4 | +
B5 | +
B6 | +
B7 | -
B8 | -
